Measurements taken from article PMC7188244.

Legend:
[1] = target: HA-tagged SQSTM1-NUP214^FGmut fusion protein (human) (UniProt P35658); experiment: co-IP; nuclear lysates of stably transduced MEFs; anti-HA antibody overnight at 4°C, Protein G Dynabeads; washes with 150 and 175 mM NaCl buffer; immunoblot with anti-Crm1 and anti-HA, Crm1 signal/HA signal quantified on LI-COR Odyssey; cells untreated or treated with LMB (10 nM, 2 hours)
[2] = target: HA-tagged SQSTM1-NUP214 fusion protein (human) (UniProt P35658); experiment: as above

| percent reduction of Crm1 binding against SQSTM1-NUP214 [1] | percent reduction of Crm1 binding by LMB (10 nM, 2 hours) [2] | percent reduction of Crm1 binding by LMB (10 nM, 2 hours) [1] | Substance |
| --- | --- | --- | --- |
| > 50% | 58% | – | Crm1 (chromosome region maintenance 1) (from UniProt Q6P5F9 1-1071) (natural protein) |
| – | – | 52% | Crm1 (chromosome region maintenance 1) (from UniProt Q6P5F9 1-1071) |
